According to patent US20180155451A1 (published 2018):

T1: FcγRIIb extracellular domain with C-terminal His tag (human, UniProt P31994 43-217)
T1 construct: extracellular domain; also called FcgRIIb; 2b; not shown: His tag at the C terminus
T1 sequence (looked up): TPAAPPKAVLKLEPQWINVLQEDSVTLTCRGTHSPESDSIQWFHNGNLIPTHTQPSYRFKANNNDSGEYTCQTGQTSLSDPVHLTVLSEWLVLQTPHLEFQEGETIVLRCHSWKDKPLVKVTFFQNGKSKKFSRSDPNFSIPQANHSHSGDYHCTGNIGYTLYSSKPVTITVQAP

B1: GpH7-A5/GpH7-B3 variant S298_02A/GpL16-k0 (antibody, human IgG1, kappa)
heavy 1: not shown
heavy 2: not shown
light: DIVMTQSPLSLPVTPGEPASISCQASESLVHSNRNTYLHWYLQKPGQSPQLLIYKVSNRFSGVPDRFSGSGSGTDFTLKISRVEAEDVGVYYCSQNTHVPPTFGQGTKVEIERTVAAPSVFIFPPSDEQLKSGTASVVCLLNNFYPREAKVQWKVDNALQSGNSQESVTEQDSKDSTYSLSSTLTLSKADYEKHKVYACEVTHQGLSSPVTKSFNRGEC
notes: position is EU numbering; also called He Ab
B2: GpH7-A5/GpH7-B3 variant E333_01G/GpL16-k0 (antibody, human IgG1, kappa)
heavy 1: not shown
heavy 2: not shown
light: B1 light
notes: as for B1
B3: GpH7-A5/GpH7-B3 variant P329_12R/GpL16-k0 (antibody, human IgG1, kappa)
heavy 1: not shown
heavy 2: not shown
light: B1 light
notes: as for B1
B4: GpH7-A5/GpH7-B3 variant K334_06M/GpL16-k0 (antibody, human IgG1, kappa)
heavy 1: not shown
heavy 2: not shown
light: B1 light
notes: as for B1
B5: GpH7-A5/GpH7-B3 variant A330_08L/GpL16-k0 (antibody, human IgG1, kappa)
heavy 1: not shown
heavy 2: not shown
light: B1 light
notes: as for B1
B6: GpH7-A5/GpH7-B3 variant I332_10E/GpL16-k0 (antibody, human IgG1, kappa)
heavy 1: not shown
heavy 2: not shown
light: B1 light
notes: as for B1
B7: GpH7-A5/GpH7-B3 variant Q295_18N/GpL16-k0 (antibody, human IgG1, kappa)
heavy 1: not shown
heavy 2: not shown
light: B1 light
notes: as for B1
B8: GpH7-A5/GpH7-B3 variant I332_12R/GpL16-k0 (antibody, human IgG1, kappa)
heavy 1: not shown
heavy 2: not shown
light: B1 light
notes: as for B1
B9: GpH7-A5/GpH7-B3 variant A330_15Y/GpL16-k0 (antibody, human IgG1, kappa)
heavy 1: not shown
heavy 2: not shown
light: B1 light
notes: as for B1
B10: GpH7-A5/GpH7-B3 variant I332_09D/GpL16-k0 (antibody, human IgG1, kappa)
heavy 1: not shown
heavy 2: not shown
light: B1 light
notes: as for B1
B11: GpH7-A5/GpH7-B3 variant S298_04F/GpL16-k0 (antibody, human IgG1, kappa)
heavy 1: not shown
heavy 2: not shown
light: B1 light
notes: as for B1
B12: GpH7-A5/GpH7-B3 variant Q295_13S/GpL16-k0 (antibody, human IgG1, kappa)
heavy 1: not shown
heavy 2: not shown
light: B1 light
notes: as for B1
B13: GpH7-A5/GpH7-B3 variant P329_02A/GpL16-k0 (antibody, human IgG1, kappa)
heavy 1: not shown
heavy 2: not shown
light: B1 light
notes: as for B1
B14: GpH7-A5/GpH7-B3 variant A330_10E/GpL16-k0 (antibody, human IgG1, kappa)
heavy 1: not shown
heavy 2: not shown
light: B1 light
notes: as for B1
B15: GpH7-A5/GpH7-B3 variant K334_05P/GpL16-k0 (antibody, human IgG1, kappa)
heavy 1: not shown
heavy 2: not shown
light: B1 light
notes: as for B1
B16: GpH7-A5/GpH7-B3 variant Q295_14T/GpL16-k0 (antibody, human IgG1, kappa)
heavy 1: not shown
heavy 2: not shown
light: B1 light
notes: as for B1
B17: GpH7-A5/GpH7-B3 variant K334_09D/GpL16-k0 (antibody, human IgG1, kappa)
heavy 1: not shown
heavy 2: not shown
light: B1 light
notes: as for B1
B18: GpH7-A5/GpH7-B3 variant S298_03V/GpL16-k0 (antibody, human IgG1, kappa)
heavy 1: not shown
heavy 2: not shown
light: B1 light
notes: as for B1
B19: GpH7-A5/GpH7-B3 variant P329_11K/GpL16-k0 (antibody, human IgG1, kappa)
heavy 1: not shown
heavy 2: not shown
light: B1 light
notes: as for B1
B20: GpH7-A5/GpH7-B3 variant E333_02A/GpL16-k0 (antibody, human IgG1, kappa)
heavy 1: not shown
heavy 2: not shown
light: B1 light
notes: as for B1
B21: GpH7-A5/GpH7-B3 variant I332_01G/GpL16-k0 (antibody, human IgG1, kappa)
heavy 1: not shown
heavy 2: not shown
light: B1 light
notes: as for B1
B22: GpH7-A5/GpH7-B3 variant A330_06M/GpL16-k0 (antibody, human IgG1, kappa)
heavy 1: not shown
heavy 2: not shown
light: B1 light
notes: as for B1
B23: GpH7-A5/GpH7-B3 variant K334_04F/GpL16-k0 (antibody, human IgG1, kappa)
heavy 1: not shown
heavy 2: not shown
light: B1 light
notes: as for B1
B24: GpH7-A5/GpH7-B3 variant A330_03V/GpL16-k0 (antibody, human IgG1, kappa)
heavy 1: not shown
heavy 2: not shown
light: B1 light
notes: as for B1
B25: GpH7-A5/GpH7-B3 variant K334_07I/GpL16-k0 (antibody, human IgG1, kappa)
heavy 1: not shown
heavy 2: not shown
light: B1 light
notes: as for B1
B26: GpH7-A5/GpH7-B3 variant S298_07I/GpL16-k0 (antibody, human IgG1, kappa)
heavy 1: not shown
heavy 2: not shown
light: B1 light
notes: as for B1
B27: GpH7-A5/GpH7-B3 variant A330_07I/GpL16-k0 (antibody, human IgG1, kappa)
heavy 1: not shown
heavy 2: not shown
light: B1 light
notes: as for B1
B28: GpH7-A5/GpH7-B3 variant Q295_16H/GpL16-k0 (antibody, human IgG1, kappa)
heavy 1: not shown
heavy 2: not shown
light: B1 light
notes: as for B1
B29: GpH7-A5/GpH7-B3 variant E333_13S/GpL16-k0 (antibody, human IgG1, kappa)
heavy 1: not shown
heavy 2: not shown
light: B1 light
notes: as for B1
B30: GpH7-A5/GpH7-B3 variant A330_04F/GpL16-k0 (antibody, human IgG1, kappa)
heavy 1: not shown
heavy 2: not shown
light: B1 light
notes: as for B1
B31: GpH7-A5/GpH7-B3 variant E333_16H/GpL16-k0 (antibody, human IgG1, kappa)
heavy 1: not shown
heavy 2: not shown
light: B1 light
notes: as for B1
B32: GpH7-A5/GpH7-B3 variant A327_11K/GpL16-k0 (antibody, human IgG1, kappa)
heavy 1: not shown
heavy 2: not shown
light: B1 light
notes: as for B1
B33: GpH7-A5/GpH7-B3 variant A330_20W/GpL16-k0 (antibody, human IgG1, kappa)
heavy 1: not shown
heavy 2: not shown
light: B1 light
notes: as for B1
B34: GpH7-A5/GpH7-B3 variant K334_01G/GpL16-k0 (antibody, human IgG1, kappa)
heavy 1: not shown
heavy 2: not shown
light: B1 light
notes: as for B1
B35: GpH7-A5/GpH7-B3 variant K334_02A/GpL16-k0 (antibody, human IgG1, kappa)
heavy 1: not shown
heavy 2: not shown
light: B1 light
notes: as for B1
B36: GpH7-A5/GpH7-B3 variant K334_08L/GpL16-k0 (antibody, human IgG1, kappa)
heavy 1: not shown
heavy 2: not shown
light: B1 light
notes: as for B1

target: T1, FcγRIIb extracellular domain with …; experiment: SPR (Biacore), antibody captured, FcγR as analyte; He Ab binding / GpH7-A5/GpH7-B3/GpL16-k0 binding x 100
Procedure: (§1) The heterodimerized antibodies He Abs in which one of the H chains was introduced with an alteration were assayed for their binding activities to each activating FcγR and inhibitory FcγR according to the method described in Example 4. […] The activating FcγRs in FIGS. 26, 27, 28, and 29 are FcγRIa, FcγRIIa (R), FcγRIIa (H), and FcγRIIIa, respectively.
(§2) Analysis of interaction between objective antibody and the FcγR was carried out using Biacore T100 (GE Healthcare). HBS-EP+ (GE Healthcare) was used as the running buffer, and the measurement temperature was set to 25° C. Chips produced by immobilizing the antigen peptide by the amine coupling method to a Series S Sencor Chip CM5 (GE Healthcare), or alternatively, chips produced by allowing preliminarily biotinylated antigen peptides to interact with and immobilize onto a Series S Sensor Chip SA (certified) (GE Healthcare) were used. Antibodies of interest were captured onto an antigen peptide-immobilized chip, and allowed to interact to each FcγR diluted with running buffer. To regenerate and repeatedly use the chip, the antibodies captured on the chip were washed off by reacting 10 mM glycine-HCl, pH 1.5.

Row | He/Con_2b (IIb binding) | Binder
1 | 73.4 relative, control = 100 | B1
2 | 81.4 relative, control = 100 | B2
3 | 17.6 relative, control = 100 | B3
4 | 109 relative, control = 100 | B4
5 | 70.5 relative, control = 100 | B5
6 | 142 relative, control = 100 | B6
7 | 64.9 relative, control = 100 | B7
8 | 48.9 relative, control = 100 | B8
9 | 95 relative, control = 100 | B9
10 | 147 relative, control = 100 | B10
11 | 65.4 relative, control = 100 | B11
12 | 56.9 relative, control = 100 | B12
13 | 40.5 relative, control = 100 | B13
14 | 70.1 relative, control = 100 | B14
15 | 105 relative, control = 100 | B15
16 | 66.8 relative, control = 100 | B16
17 | 94.8 relative, control = 100 | B17
18 | 64.5 relative, control = 100 | B18

Row | He/Con_2b (IIb binding) | Binder
19 | 16.9 relative, control = 100 | B19
20 | 83.8 relative, control = 100 | B20
21 | 87.1 relative, control = 100 | B21
22 | 80.5 relative, control = 100 | B22
23 | 111 relative, control = 100 | B23
24 | 52.4 relative, control = 100 | B24
25 | 119 relative, control = 100 | B25
26 | 70.6 relative, control = 100 | B26
27 | 67.1 relative, control = 100 | B27
28 | 62.7 relative, control = 100 | B28
29 | 81.8 relative, control = 100 | B29
30 | 92.8 relative, control = 100 | B30
31 | 83.3 relative, control = 100 | B31
32 | 12.5 relative, control = 100 | B32
33 | 76.1 relative, control = 100 | B33
34 | 92.5 relative, control = 100 | B34
35 | 108 relative, control = 100 | B35
36 | 106 relative, control = 100 | B36

target: T2, FcγRIIIa extracellular domain with C-terminal His tag (human, UniProt P08637 17-208); experiment: as above
T2 construct: extracellular domain; also called FcgRIIIa; 3a; not shown: His tag at the C terminus
T2 sequence (P08637 17-208): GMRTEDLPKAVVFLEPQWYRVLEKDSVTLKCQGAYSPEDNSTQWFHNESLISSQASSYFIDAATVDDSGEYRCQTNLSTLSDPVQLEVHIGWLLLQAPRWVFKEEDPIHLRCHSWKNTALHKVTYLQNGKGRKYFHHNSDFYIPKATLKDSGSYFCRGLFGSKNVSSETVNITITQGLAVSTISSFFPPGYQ
Procedure: as §1, §2

Row | He/Con_3a (IIIa binding) | Binder
37 | 160 relative, control = 100 | B1
38 | 98.2 relative, control = 100 | B2
39 | 26.7 relative, control = 100 | B3
40 | 144 relative, control = 100 | B4
41 | 124 relative, control = 100 | B5
42 | 233 relative, control = 100 | B6
43 | 81.6 relative, control = 100 | B7
44 | 75.9 relative, control = 100 | B8
45 | 125 relative, control = 100 | B9
46 | 207 relative, control = 100 | B10
47 | 82.5 relative, control = 100 | B11
48 | 86.1 relative, control = 100 | B12
49 | 56.4 relative, control = 100 | B13
50 | 84.6 relative, control = 100 | B14
51 | 134 relative, control = 100 | B15
52 | 115 relative, control = 100 | B16
53 | 160 relative, control = 100 | B17
54 | 109 relative, control = 100 | B18

Row | He/Con_3a (IIIa binding) | Binder
55 | 29.6 relative, control = 100 | B19
56 | 105 relative, control = 100 | B20
57 | 111 relative, control = 100 | B21
58 | 142 relative, control = 100 | B22
59 | 148 relative, control = 100 | B23
60 | 101 relative, control = 100 | B24
61 | 151 relative, control = 100 | B25
62 | 96.4 relative, control = 100 | B26
63 | 103 relative, control = 100 | B27
64 | 76.4 relative, control = 100 | B28
65 | 103 relative, control = 100 | B29
66 | 147 relative, control = 100 | B30
67 | 103 relative, control = 100 | B31
68 | 31.7 relative, control = 100 | B32
69 | 104 relative, control = 100 | B33
70 | 121 relative, control = 100 | B34
71 | 147 relative, control = 100 | B35
72 | 143 relative, control = 100 | B36

target: T2, FcγRIIIa extracellular domain with …; experiment: SPR (Biacore); ratio of He/Con_3a (FcγRIIIa) to He/Con_2b (FcγRIIb)
Procedure: as §1, §2

Row | He_3a/2b (IIIa/IIb) [ratio] | Binder
73 | 2.18 | B1
74 | 1.21 | B2
75 | 1.52 | B3
76 | 1.33 | B4
77 | 1.77 | B5
78 | 1.63 | B6
79 | 1.26 | B7
80 | 1.55 | B8
81 | 1.32 | B9
82 | 1.41 | B10
83 | 1.26 | B11
84 | 1.51 | B12
85 | 1.39 | B13
86 | 1.21 | B14
87 | 1.27 | B15
88 | 1.72 | B16
89 | 1.69 | B17
90 | 1.69 | B18

Row | He_3a/2b (IIIa/IIb) [ratio] | Binder
91 | 1.76 | B19
92 | 1.26 | B20
93 | 1.27 | B21
94 | 1.76 | B22
95 | 1.33 | B23
96 | 1.93 | B24
97 | 1.27 | B25
98 | 1.37 | B26
99 | 1.53 | B27
100 | 1.22 | B28
101 | 1.26 | B29
102 | 1.59 | B30
103 | 1.24 | B31
104 | 2.53 | B32
105 | 1.37 | B33
106 | 1.31 | B34
107 | 1.37 | B35
108 | 1.35 | B36
